How the values were obtained:
[1] = molecular target: Hsp60 C-terminal deletion mutant Δ522 (terminal 26 residues removed) (human); experiment: cryo-EM structure
[2] = molecular target: Hsp60 C-terminal deletion mutant Δ532 (terminal 16 residues removed) (human)

| stoichiometry N [1] | refolding of denatured hMDH (hMDH activity), loss against wild-type Hsp60 [2] | Molecule |
| --- | --- | --- |
| 14 | – | Hsp60 C-terminal deletion mutant Δ522 (terminal 26 residues removed) (domain or fragment) |
| – | 27% | human malate dehydrogenase (hMDH), acid-denatured (enzyme) AKVAVLGASGGIGQPLSLLLKNSPLVSRLTLYDIAHTPGVAADLSHIETKAAVKGYLGPEQLPDCLKGCDVVVIPAGVPRKPGMTRDDLFNTNATIVATLTAACAQHCPEAMICVIANPVNSTIPITAEVFKKHGVYNPNKIFGVTTLDIVRANTFVAELKGLDPARVNVPVIGGHAGKTIIPLISQCTPKVDFPQDQLTALTGRIQEAGTEVVKAKAGAGSATLSMAYAGARFVFSLVDAMNGKEGVVECSFVKSQETECTYFSTPLLLGKKGIEKNLGIGKVSSFEEKMISDAIPELKASIKKGEDFVKTLK |

Source: publication doi:10.1101/2023.09.15.558033
